Measured values: article PMC8670242, “Functional Characterization and Structural Insights Into Stereoselectivity of Pulegone Reductase in Menthol Biosynthesis” (Frontiers in Plant Science, 2021)

Target: the molecule itself
Assay: SEC; gel filtration of purified wild type MpPR on HiLoad 16/60 Superdex 200 in 10 mM Tris-HCl pH 8.0, 50 mM NaCl, 5 mM MgCl2, 1 mM DTT; molecular mass calibrated with high and low molecular weight calibration kits

B1: (+)-pulegone reductase from Mentha piperita (enzyme)
chain: MVMNKQIVLNNYINGSLKQSDLALRTSTICMEIPDGCNGAILVKNLYLSVNPYLILRMGKLDIPQFDSILPGSTIVSYGVSKVLDSTHPSYEKGELIWGSQAGWEEYTLIQNPYNLFKIQDKDVPLSYYVGILGMPGMTAYAGFFEICSPKKGETVFVTAAAGSVGQLVGQFAKMFGCYVVGSAGSKEKVDLLKNKFGFDDAFNYKEESDYDTALKRHFPEGIDIYFDNVGGKMLEAVINNMRVHGRIAVCGMVSQYSLKQPEGVHNLLKLIPKQIRMQGFVVVDYYHLYPKFLEMVLPRIKEGKVTYVEDISEGLESAPSALLGVYVGRNVGNQVVAVSRE
notes: (+)-pulegone reductase, Mentha piperita, UniProt Q6WAU0; gene cloned into pET28a with NheI and HindIII; also called MpPR; wild type MpPR; source: E. coli BL21(DE3), purified (Ni-NTA, gel filtration on Superdex 200)
For B1, the “stoichiometry N” value was 2.
